Data: the DeepSol protein solubility set

Assay: soluble on expression in E. coli; label from the status in PepcDB or PDB records

Sequence	soluble on expression in E. coli
MQLDVYGYVVETLYLAHQSGVARCGDTAVLHQRLVEHLAERWQMPDEGIWEVRGERRHFVHSKVMAWAVVDRTIRLVEAGALDAGLCALMELREAIRHEVCTRGFEP	not soluble
MSLRVQANSRSMGVLEDKARARTFYKYLSKVYDRVNTFIWTEEMRAEALSMLDIDAEDRVLDVGCGTGFGTEGLLKHTEHVYGLDQSPHQLTKAWEKFGKHDPVAFHFGDAERLPFKPDSFDVVWSSGSIEYWPHPVQGLRELRRVAKPGSQVLVVGPDYPASTVFRKLADAIMLFYDEDEADRMFREAGYEEIQHRVLRKEPNSPPAIVTVARAPAADDEGHHHHHH	soluble
MLVLNPFSEKAVSPEDRDMVLRRGIAALDCSWKKVKKSSVIFQTARNHRSLPFLVAANPTNYGKPCILSTAEAVAATLYIVGLKDIASDIMSYFKWGPHFLDLNRELLEAYSRAENSLEVVEIQKKFIGGLEHHHHHH	soluble
MAHHHHHHMSSLKYIENSINSNIRVDGRTLSTYRTIEINKNILVSADGSSSVMNEENNVICGIKLSLLTPSLDAPDEGVINLQIDCPASVVANRIKKDHLQIMSSIIYDLCLKNNIDRKKMCILPSTFVWGVDINVMVLNAGGGLLDIISMAIYVALKDTVVPVVKPKKKIDESNTFHHTKCADYQVEIVENQKTNFPYENVPICVSIGEINNKYVYDMSKVEEELVENIFVVAVTSSGKCVAFHKLYGISMEIASILNMTENSSRISHHLFEKINEAIAKIETRSVLV	not soluble
MGSDKIHHHHHHMQKNITSLSGLNWDDLKFFLEVARTRKVSSAARRLAVDYTTVSRRINSLETSLGTLLFEKSRNNGFIMTAEGQRLLGYAESIESTLHMACEQVSGSSVALSGHIRMGCTEGFGSFFITPQLSHFLDNYPSISVDILPLPHFISLSKREADIVIALERPEHGPYVCCKLCDYSLRLYATQEYLDNHAPIQRKADLSEHVFISYVDDLAFSSELLYLSNLLPNAQAQLRSTSVIAQYTAALQGRALAILPCFLAAQDPRLLPVLTEEVNITRQFWMYCREDLRKLKRITLLWDYIREVTELNKGFLLGENRAARFV	not soluble
MGSDKIHHHHHHMTMLSTPQPTLADLAIEPGLPTVVSPRAGAAISLEEAAPLLRAIVDDTLERAGGVLFTGFHVASIDAFQSFAGSFGHPLIGYEFASTPRSQVEGAVYTSTEYPPHRSIPLHNEQSYTREWPLRIWFHCALAARSGGATPIADSRAIYRALDPALVDRFAKRELLYVRNFGQGLDLPWEQAFGSADPRTVERICRARGIECEWRDSEDGELLLRTRERCQAVARHPRTGEHVWFNQANLFHLSSLDEDMQEALIDSVGLENVPRNVYYGDGEPLEADALAEIRGVLDQQRIVFPWLTGDVLMLDNMLSAHARDPFEGPRKVVVAMARSYSEAEGEKRTAAP	not soluble
MSISSDWIVPDWPAPPSVRALSTTRQGGVSTGPYGLAGGLPGGLNLGRHVGDGPDAVTQNRRLLRAVLPAEPAWMEQVHGTVVADLDQPLPAPVVADAAIAASPGRVCVVMTADCLPVLLCDARGVTVGAAHAGWRGLCSGVIEQTVERMTDALRACGQEADPTWLAWLGPAIGPDCFEVGAEVRQAFIDAARPDELPATRAAFAEGAADGKFLADLYALARLRLARAGCRDVHGGGLCTMTDAERFYSYRRDRTTGRMATLIWRAA	soluble
MSLSRVTEIRYVGYGVKDFDAEKAFYADVWGLEPVGEDANNAWFKAQGADEHHVVQLRRADENRIDVIALAADSRSDVDALRASVEAAGCKVASEPAVLATPGGGYGFRFFSPDGLLFEVSSDVAKGAKRDLARWEGVPVKISHIVLHSPNHQDMVKFFTDVLGFKVSDWLGDFMCFLRCNSAHHRIAILPGPPCLNHVAYDMLSVDDMMRGAHRLKVKGIDIGWGPGRHTAGNNTFSYFVTPGGFVTEYTSELEEVDFDTHQYKVHVPAPMVMDQWGIGTGGPQTLPHPHANPGLFQTAEAEGHHHHHH	soluble
MDVSYLLDSLNDKQREAVAAPRSNLLVLAGAGSGKTRVLVHRIAWLMSVENCSPYSIMAVTFTNKAAAEMRHRIGQLMGTSQGGMWVGTFHGLAHRLLRAHHMDANLPQDFQILDSEDQLRLLKRLIKAMNLDEKQWPPRQAMWYINSQKDEGLRPHHIQSYGNPVEQTWQKVYQAYQEACDRAGLVDFAELLLRAHELWLNKPHILQHYRERFTNILVDEFQDTNNIQYAWIRLLAGDTGKVMIVGDDDQSIYGWRGAQVENIQRFLNDFPGAETIRLEQNYRSTSNILSAANALIENNNGRLGKKLWTDGADGEPISLYCAFNELDEARFVVNRIKTWQDNGGALAECAILYRSNAQSRVLEEALLQASMPYRIYGGMRFFERQEIKDALSYLRLIVNRNDDAAFERVVNTPTRGIGDRTLDVVRQTSRDRQLTLWQACRELLQEKALAGRAASALQRFMELIDALAQETADMPLHVQTDRVIKDSGLRTMYEQEKGEKGQTRIENLEELVTATRQFSYNEEDEDLMPLQAFLSHAALEAGEGQADTWQDAVQLMTLHSAKGLEFPQVFIVGMEEGMFPSQMSLDEGGRLEEERRLAYVGVTRAMQKLTLTYAETRRLYGKEVYHRPSRFIGELPEECVEEVRLRATVSRPVSHQRMGTPMVENDSGYKLGQRVRHAK	soluble
MAHHHHHHMNEKNKDINKYTSTNNMYKLSENNHKSLLENLKRRGIIDDDDVYNTMLQVDRGKYIKEIPYIDTPVYISHGVTISAPHMHALSLKRLINVLKPGSRAIDVGSGSGYLTVCMAIKMNVLENKNSYVIGLERVKDLVNFSLENIKRDKPELLKIDNFKIIHKNIYQVNEEEKKELGLFDAIHVGASASELPEILVDLLAENGKLIIPIEEDYTQVLYEITKKNGKIIKDRLFDVCFVSLKKN	not soluble
MGSDKIHHHHHHGKKKPPPPKSASKMGPPPPAPAPPTAPEAAPAAPTPDAAAAAPAEGEKKDGEKKSEKKDGDKKEEEKKDEEKKDGDKKEDDKKDEKKDEDKKDEKKDADEKKDEEKKDDKKDEKKDEKKDEKKDEKKEKSKKSKKSSKSKKSKKSKREKKDEEKKEDDKKEDDKKDDKKEDEKKDDDKKDDEKNYFW	not soluble
VKRGLKPIVGLNQHIQQISPEQMGIRLDPDSLPIELRELANKHNAMLDRLQTGFRRLSEFSSDIAHELKTPLTNITTQNQVILGACRTSEEYQDAIASTLEELNRITKTINDLLYIAKAENKLIHRHDEVFAVQEEIDRLVAYFEILAEDAEVRIVSSGDGQLYM	not soluble
MAHHHHHHSLSFSCPLCHQPLSREKNSYICPQRHQFDMAKEGYVNLLPVQHKRSRDPGDSAEMMQARRAFLDAGHYQPLRDAIVAQLRERLDDKATAVLDIGCGEGYYTHAFADALPEITTFGLDVSKVAIKAAAKRYPQVTFCVASSHRLPFSDTSMDAIIRIYAPCKAEELARVVKPGGWVITATPGPRHLMELKGLIYNEVHLHAPHAEQLEGFTLQQSAELCYPMRLRGDEAVALLQMTPFAWRAKPEVWQTLAAKEVFDCQTDFNIHLWQRSYEG	soluble
GSHMLPSCKEDEYPVGSECCPKCSPGYRVKEACGELTGTVCEPCPPGTYIAHLNGLSKCLQCQMCDPAMGLRASRNCSRTENAVCGCSPGHFCIVQDGDHCAACRAYA	soluble
AHHHHHHGSPRLIKDRVPTPERSVGERVRDFGEVNLGYSWELALREAERCLQCPVEYAPCIKGCPVHINIPGFIKALRENRDNPSKAVREALRIIWRDNTLPAITGRVCPQEEQCEGACVVGKVGDPINIGKLERFVADYAREHGIDDELLLEEIKGIKRNGKKVAIIGAGPAGLTCAADLAKMGYEVTIYEALHQPGGVLIYGIPEFRLPKEIVKKELENLRRLGVKIETNVLVGKTITFEELREEYDAIFIGTGAGTPRIYPWPGVNLNGIYSANEFLTRINLMKAYKFPEYDTPIKVGKRVAVIGGGNTAMDAARSALRLGAEVWILYRRTRKEMTAREEEIKHAEEEGVKFMFLVTPKRFIGDENGNLKAIELEKMKLGEPDESGRRRPIPTGETFIMEFDTAIIAIGQTPNKTFLETVPGLKVDEWGRIVVDENLMTSIPGVFAGGDAIRGEATVILAMGDGRKAAKAIHQYLSKEK	soluble
MSLRYTKEQCTAAEAQRLAQEIAFGPVVFQVSRLMLKFGIFQLLSGKREGYTLQEISGRTGLTRYAAQVLLEASLTIGTILLEEDRYVLAKAGWFLLNDKMARVNMEFNHDVNYQGLFHLEEALLNGRPEGLKVFGEWPTIYEGLSQLPEQVQKSWFGFDHFYSDQSFGKALEIVFSHHPKRLLDIGGNTGKWATQCVQYNKEVEVTIVDLPQQLEMMRKQTAGLSGSERIHGHGANLLDRDVPFPTGFDAVWMSQFLDCFSEEEVISILTRVAQSIGKDSKVYIMETLWDRQRYETASYCLTQISLYFTAMANGNSKMFHSDDLIRCIENAGLEVEEIQDNIGLGHSILQCRLKEGHHHHHH	soluble
MGHHHHHHENLYFQSHLYFQSHMTDCEFGYIYRLAQDYLQCVLQIPQPGSGPSKTSRVLQNVAFSVQKEVEKNLKSCLDNVNVVSVDTARTLFNQVMEKEFEDGIINWGRIVTIFAFEGILIKKLLRQQIAPDVDTYKEISYFVAEFIMNNTGEWIRQNGGWENGFVKKFEPK	soluble
MTRSGNTRNGKYMGEDKRRYHTITNILQYNLIPDFFTIFAKYCITFKNMTMEKTFAQISELFDQFSKDASLQVEKGNKAAGTRARKASLELEKLLKRFRKESLEASK	not soluble
DARFSLGGYAGGMYDVHVKNSWYVQPQLLFTYEEFRSKTRLGTDSFFSKFNLELPILASYNVALNNKWNLHINAGPYLSYAMFGRDKSIDYAYGNGMHSSLGWWHQDFPDHFTYGGRAGVSLESEHFIYTIDGKCSLRKRPFGRSVSLSAGVGYKF	not soluble
MGSDKIHHHHHHMRTVYAIVVNYNNFDDTAECIDSLLNQTYPCRVVVVDNGSEREVIEKLRRKYPQVEMLELGENRGYAGGCNAGIRAVIDKADYVLISNNDVVFERDAVERMVSEMEEDETIAACQPVVKYYGDERIWSAGTRIFLGYPVLHLKNKMVEVEISFDSPFGLVGCAMLIRSSALKDVGFFDEELFMMHEETEWCIRARKKGYRLAVCKAVVRHKVSASLGLFSPHYLYYTARNWLIVARRAGKAMFFYALITEPLRVLYYLVRLKRKGDIIQYLKGVVHGILSRKGRRC	not soluble
MMRRGLLLLNLGTPNNADIRAVKLYLREFLTDKRVIDLPTIPRYILVYCLILPFRSPKSAQAYQSIWTEKGSPLLYHSQNLVTKLQSALKDEYKIALGMRYGTPSITTALAELKDCHSLTILPLFPQYSSAATGSAIEKTLSHLANQEIIPSIKIIRDFYQRPEYIQAQAKIMKPYIKDNFHLLFSYHGIPERHIHKSGCDTLCPQTCTPIYDKNQACYRAQCYQTSLLLAKELQLGTHQYTTAFQSRLGKTPWIKPYTDEIFAELISKGIKNIVVSCPSFVADCLETLEEIGIRAKEQWEKLGGEQFILTPCMNDHPEWIKAIQSIVNEQF	not soluble
TPLLKTEFFPQSDNGYIQIQAEYPVGTGVNLPRAFALRMIDSWEKEIPEIDRTSFSVGQAEASSMFAAMQDNGTNIITFHIGLTGRNERKRSMNEVADQIRTMLDDYPEIHSYKVTPGGSGGGMGGQPTVNLDIYGYDFNKTGDLAERFSRLMKEDARCAQATISRKDYVPEYQFVFDRTKLAENGLNSTTAAMFLRNRVNGRVASTYREEGDEYDIRVRLAPEFRRSLRDLENILIYTPQGKGVRLGELGKIEELYTPPTIERKDRQRVVIVASTAVKGAALSDLVEVAKEKIAQLEIPDGIDYKISGTYEDQQKTFAD	not soluble
